From patent US5565354 (Sandoz Ltd., dated 1996)

Experiments:
HBsAg subtype ayw [1] = biological target: T1, HBsAg subtype ayw (hepatitis B virus, UniProt P03138); assay: solid phase RIA, 125I-labelled antibody on solid adsorbed HBsAg ayw, room temperature
HBsAg subtype ayw [2] = biological target: T1, HBsAg subtype ayw; assay: inhibition ELISA, soluble HBsAg ayw pre-incubated with antibody, HBsAg-coated well, 37 C
[3] = biological target: HBsAg in serum from a hepatitis B positive patient (hepatitis B virus)
[4] = biological target: serum-derived variant HBsAg of Patient #2 (hepatitis B virus); assay: sandwich RIA, solid-adsorbed and 125I-labelled ZM1-2, patient serum HBsAg
[5] = biological target: serum-derived variant HBsAg, sample 'Patient #4 (251)' (hepatitis B virus); assay: as above
[6] = biological target: serum-derived variant HBsAg, sample 'Patient #3 (264)' (hepatitis B virus); assay: as above
[7] = biological target: HBsAg of control HBsAg-positive serum (hepatitis B virus); assay: sandwich RIA, solid-adsorbed and 125I-labelled ZM1-2; the control itself
[8] = biological target: HBsAg of control HBsAg-positive serum (hepatitis B virus); assay: sandwich RIA, PE1-1 solid-adsorbed and ZM1-2 125I-labelled; the control itself
[9] = biological target: hepatitis B surface antigen (HBsAg), preparation and subtype not stated (hepatitis B virus); assay: AUSAB radioimmunoassay (Abbott), compared on a weight basis
[10] = biological target: serum-derived variant HBsAg of Patient #2 (hepatitis B virus); assay: sandwich RIA, PE1-1 solid-adsorbed and ZM1-2 125I-labelled, patient serum HBsAg
[11] = biological target: serum-derived variant HBsAg, sample 'Patient #4 (251)' (hepatitis B virus); assay: as above
[12] = biological target: serum-derived variant HBsAg, sample 'Patient #3 (264)' (hepatitis B virus); assay: as above

Row | Binder | Ka (HBsAg subtype ayw [1]) | Ka (HBsAg subtype ayw [2]) | IC50 [3] | relative reactivity (relative to control) [4] | relative reactivity (relative to control) [5] | relative reactivity (relative to control) [6] | relative reactivity (relative to control) [7] | relative reactivity (relative to control) [8] | potency relative to the Bureau of Biologics reference hepatitis B immune globin [9] | potency relative to the commercial hepatitis B immune globulin preparations [9] | relative reactivity (relative to control) [10] | relative reactivity (relative to control) [11] | relative reactivity (relative to control) [12]
1 | human monoclonal antibody ZM1-1 (antibody, V domains shown) VH: EVQLVESGGGLVQPGGSLRLSCAASGFTFSRYDMYWVRQATGKGLEWVSAIGPTGDTYYADSVKGRFTISRENAKNSLYLTMNGLRAGDTAVYYCARDLELWGQGTLVTVSS VL: DVVVTQSPLSLPVTLGQPASISCRSSLSLVDSDGNTYLNWFLQRPGQSPRRLIYQLSSRDSGVPDRFSGSGSGTDFTLKISRVEAEDVGVYYCMQGTHWPITFGQGTRLEIKR | 5e+09 M⁻¹ | ~1e+08 M⁻¹ |  |  |  |  |  |  |  |  |  |  | 
2 | human monoclonal antibody ZM1-2 (antibody, V domains shown) VH: QVQLQESGPGLVKAAETLSLTCTVSRGSFSDYFWNWFRQPAGKRLEWLGRVYTSGSVDYNPSLKSRVTVSVDTSKKQFSLRLSSVTVADTAVYYCARGLSGFDYWGQGALVTVSP VL: DIQMTQSPSSVSASVGDRVTVTCRASQGISSWLAWYQQKPGKAPKLLIHAASSLQSGVPSRFIGSGSGTDFTLTITSLQAEDFATYYCQQADSLPFTFGGGTKVDFKR | 1.5e+09 M⁻¹ | ~7e+08 M⁻¹ | 0.076 µg/mL | 0.233 | 0.01 | 0.179 | 1 |  |  |  |  |  | 
3 | human monoclonal antibody PE1-1 (antibody, V domains shown) VH: QVQLVESGGGVVQPGRSLRLSCAASGFTFSRYGMHWVRQAPGKGLEWVAVISYDGSNKWYADSVKGRFTISRDNSKNTLFLQMHSLRAADTGVYYCAKDQLYFGSQSPGHYWVQGTLVTVSS VL: QSQLTQPPSVSVAPGQTARITCGGDNIGSKSVNWFQQKPGQAPVLVVYDDNERPSGISERFSGSNSGNTATLTISRVEAGDEADYYCQVWDSSSDHVVFGGGTKLTVL | 3.6e+09 M⁻¹ | ~2e+09 M⁻¹ |  |  |  |  |  | 1 | 435 times | > 200 times | 0.07 | 0.024 | 0.173
